The values below come from publication PMC2150914.

The target in the test is taxol-stabilized microtubules polymerized in Xenopus egg extract (Xenopus (endogenous in Xenopus egg extract)). The experiment in a line: co-sedimentation.

Consider “X-p21-activated kinase (PAK)5, endogenous (natural protein)”, for which the percent bound is < 70%.
